The values that follow come from patent publication US20240050559A1 (ICOSAVAX, published 2024).

For this assay, the target named is T1, compA-01.
T1 chain: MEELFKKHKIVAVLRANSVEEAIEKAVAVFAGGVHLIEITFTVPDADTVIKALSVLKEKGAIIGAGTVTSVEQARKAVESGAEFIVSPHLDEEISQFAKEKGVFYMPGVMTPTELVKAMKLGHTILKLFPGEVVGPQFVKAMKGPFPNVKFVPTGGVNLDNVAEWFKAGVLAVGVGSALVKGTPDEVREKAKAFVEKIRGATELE
Kind of assay: particle assembly of purified compB-01 with compA-01.

B1: compB-01 (I53-50B sequence) (designed binder)
chain: MNQHSHKDHETVRIAVVRARWHAEIVDACVSAFEAAMRDIGGDRFAVDVFDVPGAYEIPLHARTLAETGRYGAVLGTAFVVNGGIYRHEFVASAVINGMMNVQLNTGVPVLSAVLTPHNYDKSKAHTLLFLALFAVKGMEAARACVEILAAREKIAA
notes: Designed pentameric component B of the two-component I53-50 icosahedral particle; also called I53-50B compB-01; bompB-01
As for B1, the binding result was “binds”.
